± gives the standard deviation of the averaged measurements.
What follows are sequences tested on ATP (assay: switch fluorescence ratio, 500 uM ATP over buffer (Cy3 cluster intensity, sum of 5 cycles each) (fold (ratio)); higher = stronger signal-on switching upon ATP binding; sequences stand for … in TCGTCGGCAGCGTCAGATGTGTATAAGAGACAGTTTTTTTTTTTTTTTTTTTTTTTTT…TC). Conditions: aptamer strand: ATP DNA aptamer (quencher-CACCTGGGGGAGTATTGCGGAGGAAGG + anchor), 100 nM annealed; ATP concentration: 500 uM.
How it was run: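 Exposure to 500 uM ATP lasted 15 min at 22 °C before imaging, and a selection-buffer image was taken beforehand, for Cy3-labelled switching-strand clusters on a modified Illumina MiSeq flow-cell annealed to 100 nM quencher-labelled ATP aptamer. Five buffer/ATP cycles were run with NaOH stripping and re-annealing between them. The fluorescence ratio per cluster is summed target-cycle over summed buffer-cycle Cy3 intensity, averaged per switch-domain sequence. Clusters outside 100-1000 RFU were excluded.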
Work on CTTGAAGTTA yielded a switch fluorescence ratio of 1 ± 0.011. CTTGAATGTC was tested, and the switch fluorescence ratio was 1.05 ± 0.054. Work on CTTGAATGTG yielded a switch fluorescence ratio of 1 ± 0.013. CTTGACAGAG gave a switch fluorescence ratio of 0.9835 ± 0.0074. CTTGAGTGTT gave a switch fluorescence ratio of 0.996 ± 0.011. Sequence CTTGATAACG has a switch fluorescence ratio of 1.024 ± 0.0033. CTTGATGTAA was tested, and the switch fluorescence ratio was 1 ± 0.064. For CTTGATTAGG, the switch fluorescence ratio was 0.9981 ± 0.0037. CTTGATTTTT gave a switch fluorescence ratio of 1 ± 0.016. For CTTGCATGGC, the switch fluorescence ratio was 1.077 ± 0.0092. With CTTGCGGGGC the switch fluorescence ratio was 1.03 ± 0.051. CTTGCGTGTC gave a switch fluorescence ratio of 1.03 ± 0.038. Work on CTTGCTTGAG yielded a switch fluorescence ratio of 1.003 ± 0.0007. Sequence CTTGGAGGGT has a switch fluorescence ratio of 1.04 ± 0.086. With CTTGGAGTGG the switch fluorescence ratio was 0.978 ± 0.024. With CTTGGCAGGG the switch fluorescence ratio was 0.99 ± 0.02. Sequence CTTGGGATTT has a switch fluorescence ratio of 0.98 ± 0.013. CTTGGGGATT gave a switch fluorescence ratio of 0.99 ± 0.044. CTTGGGGCAT gave a switch fluorescence ratio of 1.025 ± 0.008. With CTTGGGGGCT the switch fluorescence ratio was 1.002 ± 0.0097. With CTTGGTTACG the switch fluorescence ratio was 0.9738 ± 0.0093. CTTGGTTCGA showed a switch fluorescence ratio of 0.978 ± 0.026. CTTGGTTTCT showed a switch fluorescence ratio of 1.032 ± 0.0093. CTTGTATTAC was tested, and the switch fluorescence ratio was 1.16 ± 0.024. Sequence CTTGTCATCG has a switch fluorescence ratio of 0.993 ± 0.037. Work on CTTGTGGCTA yielded a switch fluorescence ratio of 0.956 ± 0.046. In the case of CTTGTGTTCT, the switch fluorescence ratio is reported as 0.9964 ± 0.004. CTTGTTCTTA showed a switch fluorescence ratio of 0.996 ± 0.024. In the case of CTTTAAGTTT, the switch fluorescence ratio is reported as 0.9967 ± 0.0093. Work on CTTTATAATC yielded a switch fluorescence ratio of 0.986 ± 0.026. CTTTATGGGG was tested, and the switch fluorescence ratio was 0.974 ± 0.029. CTTTATTGGA gave a switch fluorescence ratio of 0.971 ± 0.013. Sequence CTTTCAAGGT has a switch fluorescence ratio of 1.006 ± 0.0032. For CTTTCCCTTT, the switch fluorescence ratio was 1.01 ± 0.03. Work on CTTTCGGGCT yielded a switch fluorescence ratio of 1.01 ± 0.026. CTTTCTCAA gave a switch fluorescence ratio of 1.32 ± 0.44. For CTTTGAAGGA, the switch fluorescence ratio was 0.992 ± 0.03. With CTTTGATTGG the switch fluorescence ratio was 0.99 ± 0.04. Sequence CTTTGATTTT has a switch fluorescence ratio of 1.01 ± 0.019. Sequence CTTTGCATTA has a switch fluorescence ratio of 1.7035 ± 0.00023. CTTTGCCTGG gave a switch fluorescence ratio of 0.98 ± 0.026. Work on CTTTGGAGGT yielded a switch fluorescence ratio of 0.985 ± 0.016. CTTTGGCTTT showed a switch fluorescence ratio of 0.967 ± 0.014. In the case of CTTTGGGGCT, the switch fluorescence ratio is reported as 0.999 ± 0.038. Work on CTTTGGGTGG yielded a switch fluorescence ratio of 1.03 ± 0.058. In the case of CTTTGTAGT, the switch fluorescence ratio is reported as 1.013 ± 0.01. Sequence CTTTGTATGG has a switch fluorescence ratio of 1 ± 0.017. For CTTTGTATGT, the switch fluorescence ratio was 0.982 ± 0.029. For CTTTGTCTGA, the switch fluorescence ratio was 1.022 ± 0.0085. CTTTGTTACG gave a switch fluorescence ratio of 1.048 ± 0.0015. With CTTTTACCAA the switch fluorescence ratio was 0.992 ± 0.046. Sequence CTTTTAGAGA has a switch fluorescence ratio of 1.02 ± 0.015. CTTTTAGGGA showed a switch fluorescence ratio of 0.989 ± 0.028. In the case of CTTTTAGGTG, the switch fluorescence ratio is reported as 1.11 ± 0.12. CTTTTAGTGG gave a switch fluorescence ratio of 0.9714 ± 0.0059. CTTTTAGTTT gave a switch fluorescence ratio of 0.9963 ± 0.0034. CTTTTCTTAA showed a switch fluorescence ratio of 0.996 ± 0.0011. CTTTTGGATT gave a switch fluorescence ratio of 0.998 ± 0.022. CTTTTTAGGC gave a switch fluorescence ratio of 1 ± 0.043. For CTTTTTCTTT, the switch fluorescence ratio was 1.01 ± 0.057. CTTTTTGCAT was tested, and the switch fluorescence ratio was 1.02 ± 0.013. Work on CTTTTTGTGT yielded a switch fluorescence ratio of 0.987 ± 0.019. With CTTTTTTTTT the switch fluorescence ratio was 1.02 ± 0.063. For GAAAAAAAGC, the switch fluorescence ratio was 1.01 ± 0.053. Work on GAAAAAAGCG yielded a switch fluorescence ratio of 1.01 ± 0.041. For GAAAAACCTT, the switch fluorescence ratio was 3.83 ± 1.6. Work on GAAAAAGGTG yielded a switch fluorescence ratio of 1.1 ± 0.028. For GAAAAAGGTT, the switch fluorescence ratio was 0.969 ± 0.011. In the case of GAAAAAGTCA, the switch fluorescence ratio is reported as 1.01 ± 0.023. GAAAAGAGGC showed a switch fluorescence ratio of 1.1 ± 0.039. With GAAAAGATTA the switch fluorescence ratio was 0.997 ± 0.028. GAAAAGGGT was tested, and the switch fluorescence ratio was 1.08 ± 0.065. GAAAAGGTAA gave a switch fluorescence ratio of 1.025 ± 0.0033. In the case of GAAAATCAGC, the switch fluorescence ratio is reported as 0.976 ± 0.071. GAAAATGAAG gave a switch fluorescence ratio of 1.01 ± 0.031. GAAAATGTTT gave a switch fluorescence ratio of 1.0053 ± 2.1e-05. Sequence GAAAATTGGG has a switch fluorescence ratio of 0.983 ± 0.015. Sequence GAAACCGGAT has a switch fluorescence ratio of 0.966 ± 0.041. In the case of GAAACGATGT, the switch fluorescence ratio is reported as 1.08 ± 0.05. Sequence GAAACGCTTT has a switch fluorescence ratio of 1.03 ± 0.057. GAAACGGCGG showed a switch fluorescence ratio of 1.04 ± 0.055. For GAAACTAATT, the switch fluorescence ratio was 0.9966 ± 0.0042. GAAACTTGAC showed a switch fluorescence ratio of 1.61 ± 0.039. GAAAGGAATG was tested, and the switch fluorescence ratio was 1.041 ± 0.007. GAAAGGGTGG was tested, and the switch fluorescence ratio was 0.9746 ± 0.0081. For GAAAGGTTGG, the switch fluorescence ratio was 0.993 ± 0.025. For GAAAGTATAA, the switch fluorescence ratio was 0.998 ± 0.013. GAAAGTTAAG was tested, and the switch fluorescence ratio was 1.015 ± 0.0049. Sequence GAAAGTTTTG has a switch fluorescence ratio of 1.01 ± 0.059. In the case of GAAATAAGGT, the switch fluorescence ratio is reported as 0.99 ± 0.024. GAAATAAGTG was tested, and the switch fluorescence ratio was 1.04 ± 0.026. With GAAATAATGT the switch fluorescence ratio was 1.03 ± 0.055. In the case of GAAATACGGT, the switch fluorescence ratio is reported as 1.19 ± 0.17. In the case of GAAATAGTTT, the switch fluorescence ratio is reported as 1.02 ± 0.021. For GAAATCAGGT, the switch fluorescence ratio was 1.02 ± 0.019. Work on GAAATCGCTG yielded a switch fluorescence ratio of 0.97 ± 0.072. With GAAATGAATA the switch fluorescence ratio was 1 ± 0.011. GAAATGACTT was tested, and the switch fluorescence ratio was 1.03 ± 0.015. GAAATGCTCT gave a switch fluorescence ratio of 1.01 ± 0.033. Work on GAAATGGAAG yielded a switch fluorescence ratio of 1 ± 0.038. In the case of GAAATTAGAT, the switch fluorescence ratio is reported as 1.003 ± 0.0098. With GAAATTAGGA the switch fluorescence ratio was 1.01 ± 0.028. With GAAATTCACA the switch fluorescence ratio was 1.04 ± 0.031. GAAATTGGGT showed a switch fluorescence ratio of 0.981 ± 0.018. Sequence GAACACGGCG has a switch fluorescence ratio of 1 ± 0.05. GAACAGGGGG showed a switch fluorescence ratio of 1.01 ± 0.046. For GAACATGATA, the switch fluorescence ratio was 1.02 ± 0.028. GAACATTTTT showed a switch fluorescence ratio of 1.03 ± 0.021. Sequence GAACCAGGGG has a switch fluorescence ratio of 1.27 ± 0.088. Sequence GAACCGGTAC has a switch fluorescence ratio of 1.21 ± 0.019. Sequence GAACGCTGGA has a switch fluorescence ratio of 1.04 ± 0.056. For GAACGCTTGG, the switch fluorescence ratio was 1.05 ± 0.023. For GAACGGGGGT, the switch fluorescence ratio was 1 ± 0.015. Sequence GAACGGGTAC has a switch fluorescence ratio of 1.42 ± 0.17. Sequence GAACGTTATT has a switch fluorescence ratio of 1.2 ± 0.23. In the case of GAACTATTCA, the switch fluorescence ratio is reported as 0.9848 ± 0.0054. GAACTCCGGG showed a switch fluorescence ratio of 1.1 ± 0.054. For GAACTCGGGG, the switch fluorescence ratio was 1.019 ± 0.0051. Sequence GAACTCTGGG has a switch fluorescence ratio of 0.9899 ± 0.006. GAACTGCATA showed a switch fluorescence ratio of 1.09 ± 0.085. Work on GAACTGGGGG yielded a switch fluorescence ratio of 1 ± 0.019. GAACTTAAAA gave a switch fluorescence ratio of 1.02 ± 0.045. GAACTTCGGT was tested, and the switch fluorescence ratio was 0.946 ± 0.013. Work on GAAGAAAGCG yielded a switch fluorescence ratio of 1.007 ± 0.0094. Work on GAAGAAGGCT yielded a switch fluorescence ratio of 0.89 ± 0.078. In the case of GAAGAATAGG, the switch fluorescence ratio is reported as 0.967 ± 0.015. GAAGACGGGA gave a switch fluorescence ratio of 1.01 ± 0.045. For GAAGAGATGT, the switch fluorescence ratio was 1.01 ± 0.021. In the case of GAAGAGGGGA, the switch fluorescence ratio is reported as 1.01 ± 0.013. GAAGATGAGG showed a switch fluorescence ratio of 1 ± 0.028. GAAGATGGTT gave a switch fluorescence ratio of 0.969 ± 0.018. GAAGATTTGC was tested, and the switch fluorescence ratio was 0.973 ± 0.012. With GAAGCAAAGG the switch fluorescence ratio was 2.04 ± 0.074. GAAGCCGGGC showed a switch fluorescence ratio of 1.04 ± 0.022. Sequence GAAGCTAATC has a switch fluorescence ratio of 2.77 ± 0.47. GAAGCTGTTT gave a switch fluorescence ratio of 1.026 ± 0.0042. For GAAGCTTTTT, the switch fluorescence ratio was 1 ± 0.047. With GAAGGAAGGT the switch fluorescence ratio was 0.9996 ± 0.007. In the case of GAAGGACAGA, the switch fluorescence ratio is reported as 1 ± 0.018. With GAAGGAGGTT the switch fluorescence ratio was 1 ± 0.012. With GAAGGCATTT the switch fluorescence ratio was 1.16 ± 0.28. Sequence GAAGGGAAGA has a switch fluorescence ratio of 0.96 ± 0.012. In the case of GAAGGGATTT, the switch fluorescence ratio is reported as 1.13 ± 0.11. Sequence GAAGGGCTAG has a switch fluorescence ratio of 0.9985 ± 0.0061. With GAAGGGGCCC the switch fluorescence ratio was 1.02 ± 0.013. Work on GAAGGGGCCG yielded a switch fluorescence ratio of 1.12 ± 0.07. GAAGGGGGAG gave a switch fluorescence ratio of 0.996 ± 0.028. With GAAGGGGGTG the switch fluorescence ratio was 1.02 ± 0.039. GAAGGGGTTT was tested, and the switch fluorescence ratio was 0.999 ± 0.03. GAAGGTAGGT gave a switch fluorescence ratio of 0.98 ± 0.024. Sequence GAAGGTGGGG has a switch fluorescence ratio of 0.992 ± 0.037. GAAGTACCTT gave a switch fluorescence ratio of 1.2 ± 0.044. With GAAGTACTAT the switch fluorescence ratio was 1.2 ± 0.021.

Reference: the supplement of paper PMC10126150
